Laboratory results from the RNAGym collection of RNA variant scans (doi:10.7554/elife.80360).

B1: CPEB3 Ribozyme (parent)
chain: GGGGGCCACAGCAGAAGCGUUCACGUCGCGGCCCCUGUCAGAUUCUGGUGAAUCUGCGAAUUCUGCUGU

Variants of: B1
Assay: self-cleavage, relative activity (ratio to wild type); higher = more cleavage; co-transcriptional

Variant	self-cleavage
GGGGGCCACAGCAGAAGCGUUCACGUCGCGGCCCAUGUCAGAUUCUGGUUAAUCUGCGAAUUCUGCUGU	0.287
GGGGGCCACAGCAGAAGCGUUCACGUCGCGGCCUCUGUCAGAUUCUGGUGAAUCUGCGAAGUCUGCUGU	0.711
GGGGGCCACAGCAGAAGCGUUCACGUCGCGGCCUCUGUCAGAUUCUGGUGAAUCUGCGAAAUCUGCUGU	0.952
GGGGGCCACAGCAGAAGCGUUCACGUCGCGGCCUCUGUCAGAUUCUGGUGAAUCUGCGAAUUGUGCUGU	0.78
GGGGGCCACAGCAGAAGCGUUCACGUCGCGGCCUCUCUCAGAUUCUGGUGAAUCUGCGAAUUCUGCUGU	0.226
GGGGGCCACAGCAGAAGCGUUCACGUCGCGGCCUCUUUCAGAUUCUGGUGAAUCUGCGAAUUCUGCUGU	0.247
GGGGGCCACAGCAGAAGCGUUCACGUCGCGGCCCAUGUCAGAUUCUGUUGAAUCUGCGAAUUCUGCUGU	0.249
GGGGGCCACAGCAGAAGCGUUCACGUCGCGGCCUCUGUCAGAUUCUGGUGAAUCUGCGAAUUCUGCGGU	0.982
GGGGGCCACAGCAGAAGCGUUCACGUCGCGGCCUCUGUCAGAGUCUGGUGAAUCUGCGAAUUCUGCUGU	0.708
GGGGGCCACAGCAGAAGCGUUCACGUCGCGGCCUCUGUCAGAUUCUGGUGAAGCUGCGAAUUCUGCUGU	0.728
GGGGGCCACAGCAGAAGCGUUCACGUCGCGGCCUCUGUCAGAUUCUGGUGAACCUGCGAAUUCUGCUGU	0.943
GGGGGCCACAGCAGAAGCGUUCACGUCGCGGCCCAUGUCAGAUUCUGGUGAAUCUGCGCAUUCUGCUGU	0.204
GGGGGCCACAGCAGAAGCGUUCACGUCGCGGCCCAUGUCAGAUUCUGGUGAAUCUGCGUAUUCUGCUGU	0.227
GGGGGCCACAGCAGAAGCGUUCACGUCGCGGCCCAUGUCAGAUUCUGGUGAAUCUGCGGAUUCUGCUGU	0.34
GGGGGCCACAGCAGAAGCGUUCACGUCGCGGCCUCUGUCAGAUUCUGGUGAAUCUGCGAAUUCUGAUGU	0.973
GGGGGCCACAGCAGAAGCGUUCACGUCGCGGCCUCUGUCAGAUUCUGGUGAAUCUGCGAAUUCUGUUGU	0.977
GGGGGCCACAGCAGAAGCGUUCACGUCGCGGCCCAUGUCAGAUUCUGGUGAAUCUGCGAAUUCUGAUGU	0.22
GGGGGCCACAGCAGAAGCGUUCACGUCGCGGCCCAUGUCAGAUUCUGGUGAAUCUGCGAAUUCUGGUGU	0.294
GGGGGCCACAGCAGAAGCGUUCACGUCGCGGCCCAUGUCAGAUUCUGGUGAAUCUGCGAAUUCUGUUGU	0.259
GGGGGCCACAGCAGAAGCGUUCACGUCGCGGCCCAUGUCAGAUUCUGGUGGAUCUGCGAAUUCUGCUGU	0.234

Variant	self-cleavage
GGGGGCCACAGCAGAAGCGUUCACGUCGCGGCCCAUGUCAGAUUCUGGUGCAUCUGCGAAUUCUGCUGU	0.255
GGGGGCCACAGCAGAAGCGUUCACGUCGCGGCCCAUGUCAGGUUCUGGUGAAUCUGCGAAUUCUGCUGU	0.281
GGGGGCCACAGCAGAAGCGUUCACGUCGCGGCCCAUGUCAGCUUCUGGUGAAUCUGCGAAUUCUGCUGU	0.229
GGGGGCCACAGCAGAAGCGUUCACGUCGCGGCCCAUGUCAGUUUCUGGUGAAUCUGCGAAUUCUGCUGU	0.19
GGGGGCCACAGCAGAAGCGUUCACGUCGCGGCCCAUUUCAGAUUCUGGUGAAUCUGCGAAUUCUGCUGU	0.237
GGGGGCCACAGCAGAAGCGUUCACGUCGCGGCCCAUCUCAGAUUCUGGUGAAUCUGCGAAUUCUGCUGU	0.254
GGGGGCCACAGCAGAAGCGUUCACGUCGCGGCCCAUAUCAGAUUCUGGUGAAUCUGCGAAUUCUGCUGU	0.221
GGGGGCCACAGCAGAAGCGUUCACGUCGCGGCCUCUGUCAGAUUCUGGUGAAUCUGAGAAUUCUGCUGU	0.315
GGGGGCCACAGCAGAAGCGUUCACGUCGCGGCCUCUGUCAGAUUCUGGUGAAUCUGUGAAUUCUGCUGU	0.385
GGGGGCCACAGCAGAAGCGUUCACGUCGCGGCCCAUGUCAGAUUCUGGUGAAUCUGCGAAUUAUGCUGU	0.276
GGGGGCCACAGCAGAAGCGUUCACGUCGCGGCCCAUGUCAGAUUCUGGUGAAUUUGCGAAUUCUGCUGU	0.252
GGGGGCCACAGCAGAAGCGUUCACGUCGCGGCCCAUGUCAGAUUCUGGUGAAUAUGCGAAUUCUGCUGU	0.315
GGGGGCCACAGCAGAAGCGUUCACGUCGCGGCCCAUGUCAGAUUCUUGUGAAUCUGCGAAUUCUGCUGU	0.259
GGGGGCCACAGCAGAAGCGUUCACGUCGCGGCCCAUGUCAGAUUCUCGUGAAUCUGCGAAUUCUGCUGU	0.189
GGGGGCCACAGCAGAAGCGUUCACGUCGCGGCCCAUGUCAGAUUCUAGUGAAUCUGCGAAUUCUGCUGU	0.292
GGGGGCCACAGCAGAAGCGUUCACGUCGCGGCCUCUGUCAGAUUCUCGUGAAUCUGCGAAUUCUGCUGU	0.968
GGGGGCCACAGCAGAAGCGUUCACGUCGCGGCCUCUGUCAGAUUCUAGUGAAUCUGCGAAUUCUGCUGU	0.958
GGGGGCCACAGCAGAAGCGUUCACGUCGCGGCCUCUGUCAGAUUCUUGUGAAUCUGCGAAUUCUGCUGU	0.995
GGGGGCCACAGCAGAAGCGUUCACGUCGCGGCCCAUGUCAGAUUCUGGUGAGUCUGCGAAUUCUGCUGU	0.247
